± gives the uncertainty stated by the source.
The sequences below were run on HEK293T (assay: plasma membrane surface immunostaining intensity (anti-HA, deep receptor scanning) (arbitrary fluorescence units); higher = higher plasma membrane expression). Conditions: GPCR class: A.

| Sequence | plasma membrane surface immunostaining intensity |
| --- | --- |
| MTAAIRRQRELSILPKVTLEAMNTTVMQGFNRSERCPRDTRIVQLVFPALYTVVFLTGILLNTLALWVFVHIPSSSTFIIYLKNTLVADLIMTLMLPFKILSDSHLAPWQLRAFVCRFSSVIFYETMYVGIVLLGLIAFDRFLKIIRPLRNIFLKKPVFAKTVSIFIWFFLFFISLPNTILSNKEATPSSVKKCASLKGPLGLKWHQMVNNICQFIFWTVFILMLVFYVVIAKKVYDSYRKSKSKDRKNNKKLEGKVFVVVAVFFVCFAPFHFARVPYTHSQTNNKTDCRLQNQLFIAKETTLFLAATNICMDPLIYIFLCKKFTEKLPCMQGRKTTASSQENHSSQTDNITLG [P2RY13] | 239 ± 12 |
| MNYPLTLEMDLENLEDLFWELDRLDNYNDTSLVENHLCPATEGPLMASFKAVFVPVAYSLIFLLGVIGNVLVLVILERHRQTRSSTETFLFHLAVADLLLVFILPFAVAEGSVGWVLGTFLCKTVIALHKVNFYCSSLLLACIAVDRYLAIVHAVHAYRHRRLLSIHITCGTIWLVGFLLALPEILFAKVSQGHHNNSLPRCTFSQENQAETHAWFTSRFLYHVAGFLLPMLVMGWCYVGVVHRLRQAQRRPQRQKAVRVAILVTSIFFLCWSPYHIVIFLDTLARLKAVDNTCKLNGSLPVAITMCEFLGLAHCCLNPMLYTFAGVKFRSDLSRLLTKLGCTGPASLCQLFPSWRRSSLSESENATSLTTF [CXCR5] | 630 ± 74 |
| MSEEEFYLFKNISSVGPWDGPQYHIAPVWAFYLQAAFMGTVFLIGFPLNAMVLVATLRYKKLRQPLNYILVNVSFGGFLLCIFSVFPVFVASCNGYFVFGRHVCALEGFLGTVAGLVTGWSLAFLAFERYIVICKPFGNFRFSSKHALTVVLATWTIGIGVSIPPFFGWSRFIPEGLQCSCGPDWYTVGTKYRSESYTWFLFIFCFIVPLSLICFSYTQLLRALKAVAAQQQESATTQKAEREVSRMVVVMVGSFCVCYVPYAAFAMYMVNNRNHGLDLRLVTIPSFFSKSACIYNPIIYCFMNKQFQACIMKMVCGKAMTDESDTCSSQKTEVSTVSSTQVGPN [OPN1SW] | 2770 ± 310 |
| MQMADAATIATMNKAAGGDKLAELFSLVPDLLEAANTSGNASLQLPDLWWELGLELPDGAPPGHPPGSGGAESADTEARVRILISVVYWVVCALGLAGNLLVLYLMKSMQGWRKSSINLFVTNLALTDFQFVLTLPFWAVENALDFKWPFGKAMCKIVSMVTSMNMYASVFFLTAMSVTRYHSVASALKSHRTRGHGRGDCCGRSLGDSCCFSAKALCVWIWALAALASLPSAIFSTTVKVMGEELCLVRFPDKLLGRDRQFWLGLYHSQKVLLGFVLPLGIIILCYLLLVRFIADRRAAGTKGGAAVAGGRPTGASARRLSKVTKSVTIVVLSFFLCWLPNQALTTWSILIKFNAVPFSQEYFLCQVYAFPVSVCLAHSNSCLNPVLYCLVRREFRKALKSLLWRIASPSITSMRPFTATTKPEHEDQGLQAPAPPHAAAEPDLLYYPPGVVVYSGGRYDLLPSSSAY [RXFP3] | 979 ± 290 |
| MASSTTRGPRVSDLFSGLPPAVTTPANQSAEASAGNGSVAGADAPAVTPFQSLQLVHQLKGLIVLLYSVVVVVGLVGNCLLVLVIARVRRLHNVTNFLIGNLALSDVLMCTACVPLTLAYAFEPRGWVFGGGLCHLVFFLQPVTVYVSVFTLTTIAVDRYVVLVHPLRRRISLRLSAYAVLAIWALSAVLALPAAVHTYHVELKPHDVRLCEEFWGSQERQRQLYAWGLLLVTYLLPLLVILLSYVRVSVKLRNRVVPGCVTQSQADWDRARRRRTFCLLVVIVVVFAVCWLPLHVFNLLRDLDPHAIDPYAFGLVQLLCHWLAMSSACYNPFIYAWLHDSFREELRKLLVAWPRKIAPHGQNMTVSVVI [PRLHR] | 5220 ± 340 |
| MASSWPPLELQSSNQSQLFPQNATACDNAPEAWDLLHRVLPTFIISICFFGLLGNLFVLLVFLLPRRQLNVAEIYLANLAASDLVFVLGLPFWAENIWNQFNWPFGALLCRVINGVIKANLFISIFLVVAISQDRYRVLVHPMASRRQQRRRQARVTCVLIWVVGGLLSIPTFLLRSIQAVPDLNITACILLLPHEAWHFARIVELNILGFLLPLAAIVFFNYHILASLRTREEVSRTRCGGRKDSKTTALILTLVVAFLVCWAPYHFFAFLEFLFQVQAVRGCFWEDFIDLGLQLANFFAFTNSSLNPVIYVFVGRLFRTKVWELYKQCTPKSLAPISSSHRKEIFQLFWRN [BDKRB1] | 976 ± 180 |

Same assay, conditions: GPCR class: A (Olfactory)

| Sequence | plasma membrane surface immunostaining intensity |
| --- | --- |
| MTRKNYTSLTEFVLLGLADTLELQIILFLFFLVIYTLTVLGNLGMILLIRIDSQLHTPMYFFLANLSFVDVCNSTTITPKMLADLLSEKKTISFAGCFLQMYFFISLATTECILFGLMAYDRYAAICRPLLYSLIMSRTVYLKMAAGAFAAGLLNFMVNTSHVSSLSFCDSNVIHHFFCDSPPLFKLSCSDTILKESISSILAGVNIVGTLLVILSSYSYVLFSIFSMHSGEGRHRAFSTCASHLTAIILFYATCIYTYLRPSSSYSLNQDKVASVFYTVVIPMLNPLIYSLRSKEVKKALANVISRKRTSSFL [OR5F1] | 192 ± 87 |
| MEKANETSPVMGFVLLRLSAHPELEKTFFVLILLMYLVILLGNGVLILVTILDSRLHTPMYFFLGNLSFLDICFTTSSVPLVLDSFLTPQETISFSACAVQMALSFAMAGTECLLLSMMAFDRYVAICNPLRYSVIMSKAAYMPMAASSWAIGGAASVVHTSLAIQLPFCGDNVINHFTCEILAVLKLACADISINVISMEVTNVIFLGVPVLFISFSYVFIITTILRIPSAEGRKKVFSTCSAHLTVVIVFYGTLFFMYGKPKSKDSMGADKEDLSDKLIPLFYGVVTPMLNPIIYSLRNKDVKAAVRRLLRPKGFTQ [OR2S2] | 120 ± 24 |
| MERINHTSSVSEFILLGLSSRPEDQKTLFVLFLIVYLVTITGNLLIILAIRFNPHLQTPMYFFLSFLSLTDICFTTSVVPKMLMNFLSEKKTISYAGCLTQMYFLYALGNSDSCLLAVMAFDRYVAVCDPFHYVTTMSHHHCVLLVAFSCSFPHLHSLLHTLLLNRLTFCDSNVIHHFLCDLSPVLKLSCSSIFVNEIVQMTEAPIVLVTRFLCIAFSYIRILTTVLKIPSTSGKRKAFSTCGFYLTVVTLFYGSIFCVYLQPPSTYAVKDHVATIVYTVLSSMLNPFIYSLRNKDLKQGLRKLMSKRS [OR1L8] | 177 ± 72 |
| MAWENQTFNSDFILLGIFNHSPPHTFLFFLVLGIFLVAFMGNSVMVLLIYLDTQLHTPMYFLLSQLSLMDLMLICTTVPKMAFNYLSGSKSISMAGCVTQIFFYISLSGSECFLLAVMAYDRYIAICHPLRYTNLMNPKICGLMATFSWILGSTDGIIDAVATFSFSFCGSREIAHFFCEFPSLLILSCNDTSIFEEVIFICCIVMLVFPVAIIIASYARVILAVIHMGSGEGRCKAFTTCSSHLMVVGMYYGAALFMYIRPTSDHSPTQDKMVSVFYTILTPMLNPLIYSLRNKEVTRAFMKILGKGKSESELPHKLYVLLFAKFFFLISIFFYDVKILALIMYIA [OR2M2] | 134 ± 22 |
| MSASNITLTHPTAFLLVGIPGLEHLHIWISIPFCLAYTLALLGNCTLLLIIQADAALHEPMYLFLAMLAAIDLVLSSSALPKMLAIFWFRDREINFFACLAQMFFLHSFSIMESAVLLAMAFDRYVAICKPLHYTKVLTGSLITKIGMAAVARAVTLMTPLPFLLRCFHYCRGPVIAHCYCEHMAVVRLACGDTSFNNIYGIAVAMFIVVLDLLLVILSYIFILQAVLLLASQEARYKAFGTCVSHIGAILAFYTTVVISSVMHRVARHAAPHVHILLANFYLLFPPMVNPIIYGVKTKQIRESILGVFPRKDM [OR52K2] | 441 ± 130 |
| MQRANHSTVTQFILVGFSVFPHLQLMLFLLFLLMYLFTLLGNLLIMATVWSERSLHTPMYLFLCALSVSEILYTVAIIPRMLADLLSTQRSIAFLACASQMFFSFSFGFTHSFLLTVMGYDRYVAICHPLRYNVLMSPRGCACLVGCSWAGGLVMGMVVTSAIFHLAFCGHKEIHHFACHVPPLLKLACGDDVLVVAKGVGLVCITALLGCFLLILLSYAFIVAAILKIPSAEGRNKAFSTCASHLTVVVVHYGFASVIYLKPKSPQSLEGDTLMGITYTVLTPFLSPIIFSLRNKELKVAMKKTFFSKLYPEKNVMM [OR10H1] | 121 ± 17 |
| MDNLTKVTEFLLMEFSGIWELQVLHAGLFLLIYLAVLVGNLLIIAVITLDQHLHTPMYFFLKNLSVLDLCYISVTVPKSIRNSLTRRSSISYLGCVAQVYFFSAFASAELAFLTVMSYDRYVAICHPLQYRAVMTSGGCYQMAVTTWLSCFSYAAVHTGNMFREHVCRSSVIHQFFRDIPHVLALVSCEVFFVEFLTLALSSCLVLGCFILMMISYFQIFSTVLRIPSGQSRAKAFSTCSPQLIVIMLFLTTGLFAALGPIAKALSIQDLVIALTYTVLPPFLNPIIYSLRNKEIKTAMWRLFVKIYFLQK [OR14I1] | 118 ± 14 |

Same assay, conditions: GPCR class: C

| Sequence | plasma membrane surface immunostaining intensity |
| --- | --- |
| MASPRSSGQPGPPPPPPPPPARLLLLLLLPLLLPLAPGAWGWARGAPRPPPSSPPLSIMGLMPLTKEVAKGSIGRGVLPAVELAIEQIRNESLLRPYFLDLRLYDTECDNAKGLKAFYDAIKYGPNHLMVFGGVCPSVTSIIAESLQGWNLVQLSFAATTPVLADKKKYPYFFRTVPSDNAVNPAILKLLKHYQWKRVGTLTQDVQRFSEVRNDLTGVLYGEDIEISDTESFSNDPCTSVKKLKGNDVRIILGQFDQNMAAKVFCCAYEENMYGSKYQWIIPGWYEPSWWEQVHTEANSSRCLRKNLLAAMEGYIGVDFEPLSSKQIKTISGKTPQQYEREYNNKRSGVGPSKFHGYAYDGIWVIAKTLQRAMETLHASSRHQRIQDFNYTDHTLGRIILNAMNETNFFGVTGQVVFRNGERMGTIKFTQFQDSREVKVGEYNAVADTLEIINDTIRFQGSEPPKDKTIILEQLRKISLPLYSILSALTILGMIMASAFLFFNIKNRNQKLIKMSSPYMNNLIILGGMLSYASIFLFGLDGSFVSEKTFETLCTVRTWILTVGYTTAFGAMFAKTWRVHAIFKNVKMKKKIIKDQKLLVIVGGMLLIDLCILICWQAVDPLRRTVEKYSMEPDPAGRDISIRPLLEHCENTHMTIWLGIVYAYKGLLMLFGCFLAWETRNVSIPALNDSKYIGMSVYNVGIMCIIGAAVSFLTRDQPNVQFCIVALVIIFCSTITLCLVFVPKLITLRTNPDAATQNRRFQFTQNQKKEDSKTSTSVTSVNQASTSRLEGLQSENHRLRMKITELDKDLEEVTMQLQDTPEKTTYIKQNHYQELNDILNLGNFTESTDGGKAILKNHLDQNPQLQWNTTEPSRTCKDPIEDINSPEHIQRRLSLQLPILHHAYLPSIGGVDASCVSPCVSPTASPRHRHVPPSFRVMVSGL [GABBR2] | 6210 ± 48 |

Same assay, conditions: GPCR class: F

| Sequence | plasma membrane surface immunostaining intensity |
| --- | --- |
| MEMFTFLLTCIFLPLLRGHSLFTCEPITVPRCMKMAYNMTFFPNLMGHYDQSIAAVEMEHFLPLANLECSPNIETFLCKAFVPTCIEQIHVVPPCRKLCEKVYSDCKKLIDTFGIRWPEELECDRLQYCDETVPVTFDPHTEFLGPQKKTEQVQRDIGFWCPRHLKTSGGQGYKFLGIDQCAPPCPNMYFKSDELEFAKSFIGTVSIFCLCATLFTFLTFLIDVRRFRYPERPIIYYSVCYSIVSLMYFIGFLLGDSTACNKADEKLELGDTVVLGSQNKACTVLFMLLYFFTMAGTVWWVILTITWFLAAGRKWSCEAIEQKAVWFHAVAWGTPGFLTVMLLAMNKVEGDNISGVCFVGLYDLDASRYFVLLPLCLCVFVGLSLLLAGIISLNHVRQVIQHDGRNQEKLKKFMIRIGVFSGLYLVPLVTLLGCYVYEQVNRITWEITWVSDHCRQYHIPCPYQAKAKARPELALFMIKYLMTLIVGISAVFWVGSKKTCTEWAGFFKRNRKRDPISESRRVLQESCEFFLKHNSKVKHKKKHYKPSSHKLKVISKSMGTSTGATANHGTSAVAITSHDYLGQETLTEIQTSPETSMREVKADGASTPRLREQDCGEPASPAASISRLSGEQVDGKGQAGSVSESARSEGRISPKSDITDTGLAQSNNLQVPSSSEPSSLKGSTSLLVHPVSGVRKEQGGGCHSDT [FZD6] | 329 ± 75 |

— the supplement of paper PMC12458215
